In patent US10428149 (dated 2019):

Target: FAP (human, UniProt Q12884)
Assay: FACS, HT1080 FAP+ cells

Sequence of FAP (Q12884 26-760): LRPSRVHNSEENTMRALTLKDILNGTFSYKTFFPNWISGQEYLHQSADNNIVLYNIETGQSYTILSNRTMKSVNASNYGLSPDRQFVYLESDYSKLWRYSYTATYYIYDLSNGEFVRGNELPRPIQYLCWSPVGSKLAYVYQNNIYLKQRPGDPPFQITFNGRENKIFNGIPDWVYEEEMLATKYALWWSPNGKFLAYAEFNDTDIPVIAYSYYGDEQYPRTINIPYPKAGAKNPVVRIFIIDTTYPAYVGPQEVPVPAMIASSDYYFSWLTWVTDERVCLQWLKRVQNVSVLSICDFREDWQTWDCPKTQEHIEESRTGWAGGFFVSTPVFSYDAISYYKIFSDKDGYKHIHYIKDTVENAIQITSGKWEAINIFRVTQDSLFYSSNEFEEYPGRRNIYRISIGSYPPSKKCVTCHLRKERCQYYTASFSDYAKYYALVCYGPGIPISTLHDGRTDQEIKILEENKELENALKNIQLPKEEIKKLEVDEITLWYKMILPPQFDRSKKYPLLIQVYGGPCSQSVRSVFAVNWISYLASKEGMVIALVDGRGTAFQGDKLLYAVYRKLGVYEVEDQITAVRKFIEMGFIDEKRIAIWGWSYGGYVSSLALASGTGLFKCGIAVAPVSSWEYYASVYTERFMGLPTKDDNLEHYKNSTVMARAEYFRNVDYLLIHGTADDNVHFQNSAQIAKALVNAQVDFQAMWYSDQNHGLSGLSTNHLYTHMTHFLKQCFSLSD

EC50: 14 nM
B1: Db anti-FAP-Glyco-scTRAIL3-FAVSGAA (antibody)
chain: MDWTWRVFCLLAVAPGAHSLEASDYKDDDDKGTGQVQLVQSGAEVKKPGASVKVSCKASGYTFTENIIHWVRQAPGQGLEWMGWFHPGSGSIKYNEKFKDRVTMTADTSTSTVYMELSSLRSEDTAVYYCARHGGTGRGAMDYWGQGTLVTVSSGGGGSDIQMTQSPSSLSASVGDRVTITCRASKSVSTSAYSYMHWYQQKPGKAPKLLIYLASNLESGVPSRFSGSGSGTDFTLTISSLQPEDFATYYCQHSRELPYTFGQGTKLEIKRAAAGNGTSNGTSEFGGAAAHITGTRGRSNTLSSPNSKNEKALGRKINSWESSRSGHSFLSNLHLRNGELVIHEKGFYYIYSQTYFRFQEEIKENTKNDKQMVQYIYKYTSYPDPILLMKSARNSCWSKDAEYGLYSIYQGGIFELKENDRIFVSVTNEHLIDMDHEASFFGAFAVSGAAAHITGTRGRSNTLSSPNSKNEKALGRKINSWESSRSGHSFLSNLHLRNGELVIHEKGFYYIYSQTYFRFQEEIKENTKNDKQMVQYIYKYTSYPDPILLMKSARNSCWSKDAEYGLYSIYQGGIFELKENDRIFVSVTNEHLIDMDHEASFFGAFAVSGAAAHITGTRGRSNTLSSPNSKNEKALGRKINSWESSRSGHSFLSNLHLRNGELVIHEKGFYYIYSQTYFRFQEEIKENTKNDKQMVQYIYKYTSYPDPILLMKSARNSCWSKDAEYGLYSIYQGGIFELKENDRIFVSVTNEHLIDMDHEASFFGAFAVS
